This is an account of results in ChEMBL document CHEMBL4422612, “Small Molecule Inhibitor that Stabilizes the Autoinhibited Conformation of the Oncogenic Tyrosine Phosphatase SHP2” (J Med Chem, 2019).

Compound in series [1]: CCOc1cc(O)c(C(=O)/C=C/c2ccc(Cl)cc2Cl)cc1CN1CCC=C(n2c(=O)[nH]c3ccccc32)C1
Briefly: Mixed type inhibition of human wild-type full length SHP2 assessed as substrate Vmax at 10 uM using H-Glu-Phe-pTyr-Ala-Glu-Val-Gly-Arg-Ser-Pro-Pro-Asp-Pro-Ala-Lys as substrate by Lineweaver-Burk plot analysis (reference value: 5.55 +/- 0.49 uM/min).

Compound in series [2]: CCOc1cc(O)c(C(=O)/C=C/c2ccc(Cl)cc2Cl)cc1CN1CCC=C(n2c(=O)[nH]c3ccccc32)C1
Nature of the series: Mixed type inhibition of human wild-type full length SHP2 assessed as substrate Km at 10 uM using H-Glu-Phe-pTyr-Ala-Glu-Val-Gly-Arg-Ser-Pro-Pro-Asp-Pro-Ala-Lys as substrate by Lineweaver-Burk plot analysis (reference value: 0.034 +/- 0.012 mM).

Compound in series [3]: CCOc1cc(O)c(C(=O)/C=C/c2ccc(Cl)cc2Cl)cc1CN1CCC=C(n2c(=O)[nH]c3ccccc32)C1
Briefly: Mixed type inhibition of human wild-type full length SHP2 assessed as substrate Kcat at 10 uM using H-Glu-Phe-pTyr-Ala-Glu-Val-Gly-Arg-Ser-Pro-Pro-Asp-Pro-Ala-Lys as substrate by Lineweaver-Burk plot analysis (reference value: 3.19 +/- 0.28 Sec'-1).

Compound in series [4]: CCOc1cc(O)c(C(=O)/C=C/c2ccc(Cl)cc2Cl)cc1CN1CCC=C(n2c(=O)[nH]c3ccccc32)C1
Nature of the series: Mixed type inhibition of human wild-type full length SHP2 assessed as substrate Vmax at 20 uM using H-Glu-Phe-pTyr-Ala-Glu-Val-Gly-Arg-Ser-Pro-Pro-Asp-Pro-Ala-Lys as substrate by Lineweaver-Burk plot analysis (reference value: 5.55 +/- 0.49 uM/min).

Compound in series [5]: CCOc1cc(O)c(C(=O)/C=C/c2ccc(Cl)cc2Cl)cc1CN1CCC=C(n2c(=O)[nH]c3ccccc32)C1
Nature of the series: Mixed type inhibition of human wild-type full length SHP2 assessed as substrate Km at 20 uM using H-Glu-Phe-pTyr-Ala-Glu-Val-Gly-Arg-Ser-Pro-Pro-Asp-Pro-Ala-Lys as substrate by Lineweaver-Burk plot analysis (reference value: 0.034 +/- 0.012 mM).

Compound in series [6]: CCOc1cc(O)c(C(=O)/C=C/c2ccc(Cl)cc2Cl)cc1CN1CCC=C(n2c(=O)[nH]c3ccccc32)C1
Briefly: Mixed type inhibition of human wild-type full length SHP2 assessed as substrate Kcat at 20 uM using H-Glu-Phe-pTyr-Ala-Glu-Val-Gly-Arg-Ser-Pro-Pro-Asp-Pro-Ala-Lys as substrate by Lineweaver-Burk plot analysis (reference value: 3.19 +/- 0.28 Sec'-1).

Compound in series [7]: CCOc1cc(O)c(C(=O)/C=C/c2ccc(Cl)cc2Cl)cc1CN1CCC=C(n2c(=O)[nH]c3ccccc32)C1
Briefly: Mixed type inhibition of human wild-type full length SHP2 assessed as Kcat/Km ratio at 10 uM using H-Glu-Phe-pTyr-Ala-Glu-Val-Gly-Arg-Ser-Pro-Pro-Asp-Pro-Ala-Lys as substrate by Lineweaver-Burk plot analysis (reference value: 100.3 +/- 25 /mM/sec).

Compound in series [8]: CCOc1cc(O)c(C(=O)/C=C/c2ccc(Cl)cc2Cl)cc1CN1CCC=C(n2c(=O)[nH]c3ccccc32)C1
Nature of the series: Mixed type inhibition of human wild-type full length SHP2 assessed as Kcat/Km ratio at 20 uM using H-Glu-Phe-pTyr-Ala-Glu-Val-Gly-Arg-Ser-ProPro-Asp-Pro-Ala-Lys as substrate by Lineweaver-Burk plot analysis (reference value: 100.3 +/- 25 /mM/sec).

B1: Tyrosine-protein phosphatase non-receptor type 11 (Homo sapiens), Q06124 (protein)
chain: MTSRRWFHPNITGVEAENLLLTRGVDGSFLARPSKSNPGDFTLSVRRNGAVTHIKIQNTGDYYDLYGGEKFATLAELVQYYMEHHGQLKEKNGDVIELKYPLNCADPTSERWFHGHLSGKEAEKLLTEKGKHGSFLVRESQSHPGDFVLSVRTGDDKGESNDGKSKVTHVMIRCQELKYDVGGGERFDSLTDLVEHYKKNPMVETLGTVLQLKQPLNTTRINAAEIESRVRELSKLAETTDKVKQGFWEEFETLQQQECKLLYSRKEGQRQENKNKNRYKNILPFDHTRVVLHDGDPNEPVSDYINANIIMPEFETKCNNSKPKKSYIATQGCLQNTVNDFWRMVFQENSRVIVMTTKEVERGKSKCVKYWPDEYALKEYGVMRVRNVKESAAHDYTLRELKLSKVGQGNTERTVWQYHFRTWPDHGVPSDPGGVLDFLEEVHHKQESIMDAGPVVVHCSAGIGRTGTFIVIDILIDIIREKGVDCDIDVPKTIQMVRSQRSGMVQTEAQYRFIYMAVQHYIETLQRRIEEEQKSKRKGHEYTNIKYSLADQTSGDQSPLPPCTPTPPCAEMREDSARVYENVGLMQQQKSFR
Turning to B1, the figures for the Vmax in series [1] and in series [4] were 2.6 µM/min and 1.5 µM/min, respectively. For the same protein, the Km in series [2] stood at 47 µM; in series [5] it was 52 µM. The kcat in series [3] was 1.5 s⁻¹; in series [6], 0.86 s⁻¹. The catalytic efficiency (kcat/Km) in series [7] turned out to be 33200 M⁻¹ s⁻¹; in series [8], 17200 M⁻¹ s⁻¹.
